Source: the supplement of paper PMC10567573

B1: FUT8 (parent)
chain: YPSYKVREKIETVKYPTYPEAEK
B2: ZNF232 (parent)
chain: HSGEKPFICKECGKAYGWCSELIR

Variants of: B1
Experiment: protein stability index of a GFP-peptide fusion (GPS, HEK-293T) (PSI 1-6); higher = more stable
Details: c terminus: native
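Note: lentivirally expressed fusions sorted by FACS into six bins by GFP to DsRed ratio, PSI derived from sequencing read proportions per bin multiplied by bin number.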

Protein stability index: each site, then its substitutions
K23: S 3.46; T 3.36; R 1.82; M 2.94; Y 2.9; C 3.19; H 4.15; L 3; G 3.96; A 2.92; F 3.68; Q 4.04; P 3.88; E 1.93; N 3.95; W 2.53; V 3.4; I 4.41; D 4.61
A21: Y 3.67; W 4.21; V 3.89
E22: W 2.91; V 1.9; H 4.28; L 1.97; R 4.2; Q 4.44; M 3.45; S 4.04; K 4.54; A 3.28; I 2.17; D 4.31; F 4.11; Y 2.93; T 3.32; P 4.46; C 1.66; N 4.36

Variants of: B2
Experiment: as above
Details: c terminus: a fixed tail appended

Protein stability index: each site, then its substitutions
H1: I 2.21; S 2.33; Q 2.32; C 1.61; F 2.76; T 1.82; D 2.31; P 2.37; K 2.12; N 2.15; G 2.55; R 2.45; V 1.88; W 1.81; Y 2.28; A 1.89; M 1.16; L 1.9; E 2.4
S2: H 1.91; D 2.51; T 1.76; A 1.7; Y 1.81; K 1.74; W 1.68; R 1.64; G 2.12; Q 2.04; P 2.33; C 2.12; F 2.87; V 1.84; I 2.21; N 2.58; L 2.4; M 2.07; E 2.35
G13: Y 2.12; R 1.7; M 1.89; T 1.65; Q 1.44; P 1.65; V 2.39; A 2.29; S 1.88; I 1.76; C 2.22; D 1.97; K 1.42; E 2.14; L 1.49; W 1.53; N 2.1; F 1.49; H 1.77
A15: L 1.49; Q 2.11; Y 1.85; M 1.9; H 1.89; F 1.92; P 2.29; C 2.76; S 2.14; E 1.81; I 2.34; N 1.83; V 2.01; K 1.69; G 1.45; W 1.75; T 2.05; R 2.14; D 1.69
K14: W 2.68; F 2.02; Q 1.87; M 1.96; R 1.61; L 1.44; N 1.67; A 2.39; V 1.71; H 1.61; D 2.01; S 1.7; T 2.24; E 1.61; P 1.53; Y 1.98; C 2.73; G 2.8; I 2.04
C9: A 1.94; Q 2.48; D 2.71; P 2.23; Y 2.68; L 2.25; R 2.32; N 2.09; I 2.54; F 2.78; M 2.6; G 1.97; K 2.09; T 2.34; W 2.43; S 1.92; E 2.3; H 3.06; V 2.33
F7: M 2.1; C 1.73; A 2.22; V 1.89; K 2.54; Y 2.52; D 2.29; E 2.7; H 2.73; Q 2.08; I 2.56; S 2.79; W 2.09; T 2; G 2.52; R 2.12; N 2.24; P 2.11; L 2.05
C12: M 2.81; N 2.72; E 2.64; T 2.21; I 2.5; V 2.79; D 2.44; G 2.15; Y 2.15; P 1.81; Q 1.88; S 2.42; H 1.43; R 1.79; L 3.03; A 1.85; K 2.33; W 2.18; F 2.38
Y16: C 2.5; G 1.93; E 1.75; I 2.06; K 2.11; D 2.16; H 3.04; A 1.58; F 1.6
G3: M 2.49; T 2.07; E 2.29; W 1.86; I 1.87; F 2.13; L 1.57; V 2; A 1.86; S 2.14; N 2.07; R 1.61; Q 1.97; K 1.99; Y 1.88; H 1.47; D 2.32; P 2.22; C 2.5
K10: S 2.09; C 1.7; P 2.07; M 1.96; E 2.33; L 1.92; W 1.84; F 1.9; V 1.82; R 1.76; N 1.82; Q 2.01; A 1.68; D 1.66; I 2.01; G 1.96; H 1.75; T 1.66; Y 1.99
E4: D 1.91; T 1.29; W 1.54; N 1.95; M 1.46; V 1.05; I 1.27; L 2.76; Q 1.53; H 2.17; K 1.54; R 1.6; Y 1.81; G 1.71; F 1.37; P 2.22; C 1.9; A 1.55; S 2.52
E11: I 2.27; C 2.3; H 2.24; P 1.58; D 1.88; T 2.48; Q 1.52; F 1.77; Y 1.98; S 2.31; W 2.14; G 2.19; M 2.02; A 2.22; V 2.04; N 1.61; K 1.62; L 1.7; R 2.65
I8: W 1.69; E 2.22; S 2.28; Q 2.02; M 2.38; V 1.58; D 2.07; T 1.23; R 1.44; K 2.09; L 1.75; H 1.79; C 2.46; N 2.58; Y 1.74; A 1.7; G 2.01; P 1.81; F 1.51
P6: Y 1.74; I 1.83; E 2.37; T 2.3; K 2.91; M 2.04; L 2.2; N 2.37; Q 1.35; W 1.69; C 2.45; G 2.08; D 2.68; A 1.74; F 1.66; H 2.04; R 2.23; S 1.98; V 2.12
K5: I 2.21; A 2.1; G 2.38; Y 1.74; V 2.08; L 1.65; H 1.84; D 2.17; F 1.65; C 1.8; Q 2.12; N 2.23; E 3.4; T 1.86; S 2.21; M 2.05; R 2.57; P 2.63; W 1.96
